Data reported in US11655492B2, “Activated formylglycine-generating enzymes and methods of producing and using the same” (R.P. Scherer Technologies, LLC, priority 2015, dated 2023).
“And” between values parts separate entries of the source, which are not always exact repeats. Equal values may be shown once. Read-outs that look alike come from different tables or passages of the source.

Experiments:
[1] = molecular target: T1, recombinant human FGE (Homo sapiens, UniProt Q8NBK3); assay: In vivo conversion in CHO cells expressing recombinant human FGE and αHER2 mAb, additives in culture medium
T1 sequence (Q8NBK3 34-374): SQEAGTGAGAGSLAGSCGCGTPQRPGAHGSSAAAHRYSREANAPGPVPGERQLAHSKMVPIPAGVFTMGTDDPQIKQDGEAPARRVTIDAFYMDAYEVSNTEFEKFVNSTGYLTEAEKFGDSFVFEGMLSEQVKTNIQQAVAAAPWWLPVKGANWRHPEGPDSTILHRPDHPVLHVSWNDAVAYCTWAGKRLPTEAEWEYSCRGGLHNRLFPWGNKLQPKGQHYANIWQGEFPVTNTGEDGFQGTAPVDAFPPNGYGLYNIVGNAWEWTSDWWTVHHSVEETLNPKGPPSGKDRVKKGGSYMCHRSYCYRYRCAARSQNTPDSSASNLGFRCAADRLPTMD
Experimental: The effect on conversion in the presence of Cu^2+ (copper sulfate) in the cell culture medium of mammalian cells expressing FGEs and proteins that include FGE recognition sites was investigated. CHO cells expressing a recombinant human FGE and recombinant αHER2 mAb (heavy and light chain in same cell) containing the FGE recognition sequence LCTPSR (SEQ ID NO:4) were cultured FortiCHO media with the CellBoost4 feed, Efficient Feed C, and Efficient Feed C, supplemented with glucose and/or galactose.
The experimental conditions were the same as those used in the Cu^2+ experiments above.

[2] = molecular target: T2, FGE (Homo sapiens, UniProt Q8NBK3); assay: FGE reaction mixtures with reductants or additives (product formation); format: biochemical; settings: additive in the in vitro FGE reaction mixture
T2 construct: made in house
T2 sequence (Q8NBK3 with tags, fused parts or gaps isoform Q8NBK3-4): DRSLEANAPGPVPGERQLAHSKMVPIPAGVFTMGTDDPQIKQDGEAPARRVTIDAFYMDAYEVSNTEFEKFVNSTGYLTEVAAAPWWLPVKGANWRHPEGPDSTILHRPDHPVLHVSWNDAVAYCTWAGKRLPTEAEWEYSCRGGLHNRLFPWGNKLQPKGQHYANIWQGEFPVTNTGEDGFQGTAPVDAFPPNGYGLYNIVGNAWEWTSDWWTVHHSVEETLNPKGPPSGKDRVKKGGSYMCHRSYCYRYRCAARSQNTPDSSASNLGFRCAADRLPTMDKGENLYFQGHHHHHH
Experimental: The specific activity of FGE was measured using a discontinuous enzymatic activity assay. […] The rate of reaction was determined by integrating the peak areas at 215 nm of the substrate cysteine (Csub) and product (fGly) peptides on reversed-phase HPLC. […] Each aqueous reaction solution (120 μL) contained Csub (100 μM), FGE (0.1-1 μM), DTT (1 mM), and buffer (25 mM TEAM, pH 9). A single time course included 5 data points collected at evenly spaced intervals. The reaction was initiated upon addition of FGE stock solution and vortexing for 3 s. The reaction vial was vortexed at 1,500 RPM and 25° C. in a thermomixer R (Eppendorf). Time points were hand quenched by adding 20 μL of reaction mixture to 2 μL of 1 M HCl using a micropipettor. After completion of the reaction, each time point was analyzed by RP-HPLC (see below).
The conversion of Cys to fGly used a 2 H^+/2 e^− oxidation of the substrate Cys thiol as well as exchange of sulfur for oxygen. […] However, because O2 is a 4 H^+/4 e^− acceptor, a reducing agent was used to provide a second equivalent of 2 H^+ and 2 e^−, completing the reduction from O2 to 2 mol H2O. […] A mixture of reductant (DTT) and O2 was used for routine activity measurements.

[3] = molecular target: Sc-FGE (Streptomyces coelicolor, UniProt Q9F3C7); format: biochemical, S. coelicolor
[4] = tested on: 14 amino acid peptide ALCTPSRGSLFTGR (SEQ ID NO:8); assay: Discontinuous FGE activity assay on peptide substrate (RP-HPLC); format: biochemical
Experimental: [formula] where Et is the total enzyme in solution, and kcat and KM are the standard enzymatic parameters specified by the STRENDA commission. Units of enzyme specific activity are the katal, where 1 kat=1 mol·s^−1. Kinetic parameters were determined from nonlinear regression of [substrate] v. initial velocity using GraphPad prism.
The specific activity of FGE was measuring using a discontinuous enzymatic activity assay. The substrate for FGE was a 14 amino acid peptide containing the consensus sequence (H2N-[…]-COOH (SEQ ID NO:8)). The rate of reaction was determined by integrating the peak area at 215 nm of the starting material (Cys) and product (fGly) containing peptides on reversed-phase HPLC. The identity of product (and side product) peaks were determined by RP-HPLC MS/MS. Each aqueous reaction solution (60 μL) contained substrate peptide (100 μM), FGE (1 μM), DTT (1 mM), and buffer (25 mM triethanolamine, pH 9). A single time course consisted of 5 data points collected every 2 minutes. The reaction was initiated upon addition of FGE stock solution and vortexing for 3 s. Time points were quenched by diluting 10 μL of reaction mixture into 1 μL of 1 M HCl by hand with a micropipettor. After completion of the reaction, each time point was analyzed by RP-HPLC.
Substrate, product, and side products of the FGE substrate peptide […] (SEQ ID NO:8) were separated on RP-HPLC over 7 min with isocratic 18% MeCN in water containing 0.1% TFA. The integrated area of the fGly (2.1 min), Cys (3.3 min), βME-DS (3.6 min), and Cys-DS (6.2 min) forms of the substrate were used to calculate total area and each fraction thereof.
The specific activity of FGE was measured using a discontinuous enzymatic activity assay. The substrate for FGE was a 14 amino acid peptide containing the CXPXR consensus sequence ([…] (SEQ ID NO:8)). The rate of reaction was determined by integrating the peak areas at 215 nm of the substrate cysteine (Csub) and product (fGly) peptides on reversed-phase HPLC. The identities of product (and side product) peaks were determined by RP-HPLC MS/MS (see below). Each aqueous reaction solution (120 μL) contained Csub (100 μM), FGE (0.1-1 μM), DTT (1 mM), and buffer (25 mM TEAM, pH 9). A single time course included 5 data points collected at evenly spaced intervals. The reaction was initiated upon addition of FGE stock solution and vortexing for 3 s. The reaction vial was vortexed at 1,500 RPM and 25° C. in a thermomixer R (Eppendorf). Time points were hand quenched by adding 20 μL of reaction mixture to 2 μL of 1 M HCl using a micropipettor. After completion of the reaction, each time point was analyzed by RP-HPLC (see below).
Substrate, product, and side products of the FGE substrate peptide […] (SEQ ID NO:8) were separated on RP-HPLC over 7 min with isocratic 18% MeCN in water containing 0.1% TFA. The integrated areas of the fGly (2.1 min), Csub (3.3 min), the Csub/βME disulfide (Csub-βME, 3.6 min), and substrate/substrate disulfide (Csub-Csub, 6.1 min) forms of the substrate were used to calculate total area and each fraction thereof.
Individual FGE reactions were initiated by rapidly mixing FGE into a premixed buffered solution of Csub and reducing agent. It was assumed that all buffered solutions contained oxygen at ˜270 μM at 25° C. (based upon Henry's law). Time points were chemically quenched by hand with HCl. […]. The identities of both the Cys- and fGly-containing peptides were confirmed by LC-MS/MS (FIG. 11). These assignments were then correlated with HPLC retention times (FIG. 14, panel a). The integrated peak areas of substrate and product were used to calculate the initial velocity of FGE (FIG. 14, panel b) using the method described by Boeker (Biochem. J., (1984), 223, 15; and Biochem. J., (1985), 226, 29).

[5] = tested on: CT-1.1 tagged Her2; assay: 293 Expi transient co-transfection of FGE form and CT tagged antibody, conversion by mass-spectrometry; format: cell-based; settings: Expi 293F, FGE form co-transfected with Her2 CT1.1, harvest day 5-6
Experimental: A 293 Expi transient co-transfection system (Life Technologies) was used for producing antibodies having a formylglycine residue at a selected site. The system produced high antibody titers (100-500 mg/L) with variable (10-95%) conversion. […] Expi 293F that were treated with or without 50 μM copper sulfate prior to transfection were transiently co-transfected in three independent experiments with expression plasmids for full-length human FGE with an N-terminal KDEL (SEQ ID NO:7) amino acid sequence (+KDEL) and CT tagged antibody at a ratio of 3:1 antibody:FGE DNA. The culture was harvested at 5-6 days post transfection, titer assessed by ELISA, and the protein was purified and conversion was measured by mass-spectrometry.
Expi 293F cells that were treated with or without 50 μM copper sulfate prior to transfection were transiently co-transfected with expression plasmids for various forms of human FGE (+KDEL, WT, myc-His) and CT tagged antibody at a ratio of 3:1 antibody:FGE DNA. The culture was harvested at 5 days post transfection, titer assessed by ELISA, the protein was purified and conversion was measured by mass-spectrometry.

[6] = other ion sources: iron sulfate 0.1 mM or 0.5 mM Day 3, MnCl2 50 uM or 10 uM Day 0, ZnCl2 50 uM Day 0
[7] = as purified from cell culture, not activated
[8] = nonlinear regression to Michaelis-Menten equation

O=S(=O)([O-])[O-].[Fe+2] [iron sulfate, iron(II) sulfate]
effect on conversion of the target polypeptide [1]: did not effect a detectable or significant increase

CC(O)C(=O)O (stereo not drawn) [lactate]
effect on conversion efficiency of the FGE ([1]; potential stimulators of lactate consumption, lactate or pyruvate 1.5 g/L with feeds): did not increase conversion efficiency

[Cl][Mn][Cl] [MnCl2]
effect on conversion of the target polypeptide [1, 6]: did not effect a detectable or significant increase

[Cl-].[Cl-].[Zn+2] [ZnCl2]
effect on conversion of the target polypeptide [1, 6]: did not effect a detectable or significant increase

OO [H2O2, hydrogen peroxide]
effect on product formation when added directly to the reaction [2]: halted the reaction

O=C1O[C@H]([C@@H](O)CO)C(=O)C1=O [DHAA, (L)-dehydroascorbic acid]
effect of pretreatment on specific activity [3]: did not change

B1: Sc-FGE: Streptomyces coelicolor formylglycine-generating enzyme, UniProt Q9F3C7, N-terminal hexahistidine tag, expressed in E. coli (protein)
chain: MAVAAPSPAAAAEPGPAARPRSTRGQVRLPGGEFAMGDAFGEGYPADGETPVHTVRLRPFHIDETAVTNARFAAFVKATGHVTDAERFGSSAVFHLVVAAPDADVLGSAAGAPWWINVRGAHWRRPEGARSDITGRPNHPVVHVSWNDATAYARWAGKRLPTEAEWEYAARGGLAGRRYAWGDELTPGGRWRCNIWQGRFPHVNTAEDGHLSTAPVKSYRPNGHGLWNTAGNVWEWCSDWFSPTYYAESPTVDPHGPGTGAARVLRGGSYLCHDSYCNRYRVAARSSNTPDSSSGNLGFRCANDADLTSGSAAE
modifications: left off: small tags and cut ends
notes: Streptomyces coelicolor formylglycine-generating enzyme, UniProt Q9F3C7, N-terminal hexahistidine tag, expressed in E. coli
increase of specific activity on activation [4]: more than an order of magnitude | specific activity [4]: 3579±215 pkat·mg^−1 | specific activity [4, 7]: 214 pkat·mg^−1 and 214±34 pkat·mg^−1 | Km [4, 8]: 96 µM | kcat [4, 8]: 0.288 s⁻¹

B2: myc His: human FGE C-terminally tagged with myc-His (pRW529) (protein, UniProt Q8NBK3 34-374, looked up)
Formylglycine-generating …: T1 sequence (Q8NBK3 34-374)
modifications: C-terminal myc-His tag
specific activity of FGE isolated from Cu^2+ treated cells vs untreated cells [4]: significantly higher activity | Conversion (%) ([5]; copper sulfate 50 μM at Day 0): 78% and 94%

B3: WT: WT form of human FGE, non-KDEL (protein, UniProt Q8NBK3 34-374, looked up)
Formylglycine-generating …: T1 sequence (Q8NBK3 34-374)
Conversion (%) ([5]; copper sulfate 0 μM): 77% | Conversion (%) ([5]; copper sulfate 50 μM at Day 0): 86%

B4: Hs-FGE: full length wild-type human FGE containing the N-terminal extension and the core, UniProt Q8NBK3 (protein, UniProt Q8NBK3 1-374, looked up)
chain: MAAPALGLVCGRCPELGLVLLLLLLSLLCGAAGSQEAGTGAGAGSLAGSCGCGTPQRPGAHGSSAAAHRYSREANAPGPVPGERQLAHSKMVPIPAGVFTMGTDDPQIKQDGEAPARRVTIDAFYMDAYEVSNTEFEKFVNSTGYLTEAEKFGDSFVFEGMLSEQVKTNIQQAVAAAPWWLPVKGANWRHPEGPDSTILHRPDHPVLHVSWNDAVAYCTWAGKRLPTEAEWEYSCRGGLHNRLFPWGNKLQPKGQHYANIWQGEFPVTNTGEDGFQGTAPVDAFPPNGYGLYNIVGNAWEWTSDWWTVHHSVEETLNPKGPPSGKDRVKKGGSYMCHRSYCYRYRCAARSQNTPDSSASNLGFRCAADRLPTMD
modifications: full-length
notes: full length wild-type human FGE containing the N-terminal extension and the core, UniProt Q8NBK3
specific activity [4, 7]: 850 pkat·mg^−1

B5: +KDEL: full-length human FGE with an N-terminal KDEL (SEQ ID NO:7) amino acid sequence (protein, UniProt Q8NBK3 1-374, looked up)
chain: B4 chain
modifications: full-length N-terminal KDEL
Conversion (%) ([5]; copper sulfate 0 μM): 72% and 47% and 78% and 62% | Conversion (%) ([5]; copper sulfate 50 μM at Day 0): 93% and 94% and 95% and 88%
